Assay results as given in patent US10765761B2, “Nucleic acid condensing peptide, nucleic acid condensing peptide set, nucleic acid delivery carrier, nucleic acid delivery method, cell production method, cell detection method and kit” (KABUSHIKI KAISHA TOSHIBA, priority 2016, dated 2020).

Tested on: plasmid vector (pDNA)
Experiment: Average particle diameter, polydispersity index and Zeta potential of peptide-nucleic-acid complexes, Example 6
Format: physicochemical
Conditions: peptide-nucleic-acid complex, total peptide 0.24 mg/ml, pDNA 0.15 mg/ml
Method: Each of the peptides was dissolved into 10 mM-HEPES (pH: 5.4) to prepare several peptide solutions having different peptide concentrations.
For the mHP-1, one peptide solution was prepared to have a peptide concentration of (1) 0.24 mg/ml. For the mHP-2, one peptide solution was prepared to have a peptide concentration of (2) 0.24 mg/ml. For the mHP-1 and mHP-2, five peptide solutions were prepared to have a total peptide concentration of 0.24 mg/ml and mixture ratios between mHP-1 and mHP-2 of: (3) 1:1, (4) 1:3, (5) 1:5, (6) 1:7 and (7) 1:9. Meanwhile, plasmid vector (pDNA) was diluted with purified water to prepare a nucleic acid solution having a pDNA concentration of 0.15 mg/ml.
The peptide solutions (1) to (7) (100 μL) were prepared in tubes and the nucleic acid solution (200 μL) was dropped and mixed thereto while stirring each solution to condense the nucleic acids, and thus peptide-nucleic-acid complexes were obtained.
The peptide-nucleic-acid complexes were investigated in terms of average particle diameter, polydispersity index and Zeta potential using the respective peptide-nucleic-acid solutions. The average particle diameter, polydispersity index and Zeta potential were measured using a zetasizer.

“RQRQRYYRQRQRGGRRRRRR (Nucleic acid condensing peptide) [mHP-1]” was tested, and the “Average particle diameter (zAve)” value was 156.6 nm, the “Polydispersity index (PDI)” value was 0.190 and the Zeta potential was −31.1 mV.
